This test deals with T1, PRAME peptide on HLA-A*02:01 (human).
T1 peptide: SLLQHLIGL
In words: multimer staining.

B1: nwTCR-2583 (TCR, V domains shown)
Valpha: GQSLEQPSEVTAVEGAIVQINCTYQTSGFYGLSWYQQHDGGAPTFLSYNALDGLEETGRFSSFLSRSDSYGYLLLQELQMKDSASYFCALGTEDKIIFGKGTRLHILP
Vbeta: EAQVTQNPRYLITVTGKKLTVTCSQNMNHEYMSWYRQDPGLGLRQIYYSMNVEVTDKGDVPEGYKVSRKEKRNFPLILESPSPNQTSLYFCASRISLGANYGYTFGSGTRLTVV
On to B1, for which the binding result is recorded as “recognises”.

B2: nwTCR-2157 (TCR, V domains shown)
Valpha: QKEVEQNSGPLSVPEGAIASLNCTYSDRGSQSFFWYRQYSGKSPELIMFIYSNGDKEDGRFTAQLNKASQYVSLLIRDSQPSDSATYLCAVPGGTSYGKLTFGQGTILTVHP
Vbeta: DTAVSQTPKYLVTQMGNDKSIKCEQNLGHDTMYWYKQDSKKFLKIMFSYNNKELIINETVPNRFSPKSPDKAHLNLHINSLELGDSAVYFCASSQGISGNTIYFGEGSWLTVV
For B2, the binding result is on record as “recognises”.

B3: nwTCR-1954 (TCR, V domains shown)
Valpha: QKEVEQNSGPLSVPEGAIASLNCTYSDRGSQSFFWYRQYSGKSPELIMSIYSNGDKEDGRFTAQLNKASQYVSLLIRDSQPSDSATYLCAVLRSNDYKLSFGAGTTVTVRA
Vbeta: EAQVTQNPRYLITVTGKKLTVTCSQNMNHEYMSWYRQDPGLGLRQIYYSMNVEVTDKGDVPEGYKVSRKEKRNFPLILESPSPNQTSLYFCASSPGTSGNEQFFGPGTRLTVL
As to B3, the binding result was “recognises”.

B4: nwTCR-2383 (TCR, V domains shown)
Valpha: GIQVEQSPPDLILQEGANSTLRCNFSDSVNNLQWFHQNPWGQLINLFYIPSGTKQNGRLSATTVATERYSLLYISSSQTTDSGVYFCAVMPSGTYKYIFGTGTRLKVLA
Vbeta: EAQVTQNPRYLITVTGKKLTVTCSQNMNHEYMSWYRQDPGLGLRQIYYSMNVEVTDKGDVPEGYKVSRKEKRNFPLILESPSPNQTSLYFCASSPSSGYNEQFFGPGTRLTVL
As for B4, the binding result was “recognises”.

B5: nwTCR-1906 (TCR, V domains shown)
Valpha: RKEVEQDPGPFNVPEGATVAFNCTYSNSASQSFFWYRQDCRKEPKLLMSVYSSGNEDGRFTAQLNRASQYISLLIRDSKLSDSATYLCVVTQAGTALIFGKGTTLSVSS
Vbeta: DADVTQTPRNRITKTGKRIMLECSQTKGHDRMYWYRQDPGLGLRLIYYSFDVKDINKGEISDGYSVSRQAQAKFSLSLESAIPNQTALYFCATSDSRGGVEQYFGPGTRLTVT
Take B5: the binding result was “recognises”.

B6: nwTCR-2169 (TCR, V domains shown)
Valpha: SQQGEEDPQALSIQEGENATMNCSYKTSINNLQWYRQNSGRGLVHLILIRSNEREKHSGRLRVTLDTSKKSSSLLITASRAADTASYFCATLTLNDYKLSFGAGTTVTVRA
Vbeta: EAQVTQNPRYLITVTGKKLTVTCSQNMNHEYMSWYRQDPGLGLRQIYYSMNVEVTDKGDVPEGYKVSRKEKRNFPLILESPSPNQTSLYFCATQWASGSTDTQYFGPGTRLTVL
For the molecule B6, the binding result is “recognises”.

B7: nwTCR-2523 (TCR, V domains shown)
Valpha: RKEVEQDPGPFNVPEGATVAFNCTYSNSASQSFFWYRQDCRKEPKLLMSVYSSGNEDGRFTAQLNRASQYISLLIRDSKLSDSATYLCVVNRGSQGNLIFGKGTKLSVKP
Vbeta: DAGVTQSPTHLIKTRGQQVTLRCSPKSGHDTVSWYQQALGQGPQFIFQYYEEEERQRGNFPDRFSGHQFPNYSSELNVNALLLGDSALYLCASSLVDYEQYFGPGTRLTVT
Take B7: the binding result was “recognises”.

B8: nwTCR-2159 (TCR, V domains shown)
Valpha: QQPVQSPQAVILREGEDAVINCSSSKALYSVHWYRQKHGEAPVFLMILLKGGEQKGHDKISASFNEKKQQSSLYLTASQLSYSGTYFCGTESGRGSTLGRLYFGRGTQLTVWP
Vbeta: DSGVTQTPKHLITATGQRVTLRCSPRSGDLSVYWYQQSLDQGLQFLIQYYNGEERAKGNILERFSAQQFPDLHSELNLSSLELGDSALYFCASSPWTSGSYEQYFGPGTRLTVT
Turning to B8, the binding result is “recognises”.

B9: nwTCR-2418 (TCR, V domains shown)
Valpha: DQQVKQNSPSLSVQEGRISILNCDYTNSMFDYFLWYKKYPAEGPTFLISISSIKDKNEDGRFTVFLNKSAKHLSLHIVPSQPGDSAVYFCAASGVRGQNFVFGPGTRLSVLP
Vbeta: DSGVTQTPKHLITATGQRVTLRCSPRSGDLSVYWYQQSLDQGLQFLIQYYNGEERAKGNILERFSAQQFPDLHSELNLSSLELGDSALYFCASSPWLAGGREQYFGPGTRLTVT
Take B9: the binding result is listed as “recognises”.

B10: nwTCR-2286 (TCR, V domains shown)
Valpha: GQQLNQSPQSMFIQEGEDVSMNCTSSSIFNTWLWYKQDPGEGPVLLIALYKAGELTSNGRLTAQFGITRKDSFLNISASIPSDVGIYFCAGPEDDKIIFGKGTRLHILP
Vbeta: DSGVTQTPKHLITATGQRVTLRCSPRSGDLSVYWYQQSLDQGLQFLIQYYNGEERAKGNILERFSAQQFPDLHSELNLSSLELGDSALYFCASSPWLQGGNEQFFGPGTRLTVL
In the case of B10, the binding result was “recognises”.

B11: nwTCR-2718 (TCR, V domains shown)
Valpha: GQQLNQSPQSMFIQEGEDVSMNCTSSSIFNTWLWYKQDPGEGPVLLIALYKAGELTSNGRLTAQFGITRKDSFLNISASIPSDVGIYFCAGFSQGGSEKLVFGKGTKLTVNP
Vbeta: DSGVTQTPKHLITATGQRVTLRCSPRSGDLSVYWYQQSLDQGLQFLIQYYNGEERAKGNILERFSAQQFPDLHSELNLSSLELGDSALYFCASSPWTAGGNTIYFGEGSWLTVV
For the molecule B11, the binding result was “recognises”.

B12: nwTCR-2316 (TCR, V domains shown)
Valpha: TQLLEQSPQFLSIQEGENLTVYCNSSSVFSSLQWYRQEPGEGPVLLVTVVTGGEVKKLKRLTFQFGDARKDSSLHITAAQPGDTGLYLCAGVDNYGQNFVFGPGTRLSVLP
Vbeta: DAGVIQSPRHEVTEMGQEVTLRCKPISGHNSLFWYRQTMMRGLELLIYFNNNVPIDDSGMPEDRFSAKMPNASFSTLKIQPSEPRDSAVYFCASSIAALGFGELFFGEGSRLTVL
For B12, the binding result is reported as “recognises”.

B13: nwTCR-2081 (TCR, V domains shown)
Valpha: GEDVEQSLFLSVREGDSSVINCTYTDSSSTYLYWYKQEPGAGLQLLTYIFSNMDMKQDQRLTVLLNKKDKHLSLRIADTQTGDSAIYFCAESVGYGGSQGNLIFGKGTKLSVKP
Vbeta: KAGVTQTPRYLIKTRGQQVTLSCSPISGHRSVSWYQQTPGQGLQFLFEYFSETQRNKGNFPGRFSGRQFSNSRSEMNVSTLELGDSALYLCASSLEAGSFYEQYFGPGTRLTVT
As for B13, the binding result is “recognises”.

B14: nwTCR-2614 (TCR, V domains shown)
Valpha: AQTVTQSQPEMSVQEAETVTLSCTYDTSENNYYLFWYKQPPSRQMILVIRQEAYKQQNATENRFSVNFQKAAKSFSLKISDSQLGDTAMYFCAFDNNARLMFGDGTQLVVKP
Vbeta: GAVVSQHPSWVICKSGTSVKIECRSLDFQATTMFWYRQFPKQSLMLMATSNEGSKATYEQGVEKDKFLINHASLTLSTLTVTSAHPEDSSFYICSATRDSSYNEQFFGPGTRLTVL
As to B14, the binding result was “recognises”.

B15: nwTCR-2228 (TCR, V domains shown)
Valpha: QKEVEQNSGPLSVPEGAIASLNCTYSDRGSQSFFWYRQYSGKSPELIMFIYSNGDKEDGRFTAQLNKASQYVSLLIRDSQPSDSATYLCAGHTGNQFYFGTGTSLTVIP
Vbeta: EPEVTQTPSHQVTQMGQEVILRCVPISNHLYFYWYRQILGQKVEFLVSFYNNEISEKSEIFDDQFSVERPDGSNFTLKIRSTKLEDSAMYFCASREDGYEQYFGPGTRLTVT
Take B15: the binding result was “recognises”.

B16: nwTCR-2555 (TCR, V domains shown)
Valpha: AQSVSQHNHHVILSEAASLELGCNYSYGGTVNLFWYVQYPGQHLQLLLKYFSGDPLVKGIKGFEAEFIKSKFSFNLRKPSVQWSDTAEYFCAVKMDSSYKLIFGSGTRLLVRP
Vbeta: DGGITQSPKYLFRKEGQNVTLSCEQNLNHDAMYWYRQDPGQGLRLIYYSQIVNDFQKGDIAEGYSVSREKKESFPLTVTSAQKNPTAFYLCASLGLNYNEQFFGPGTRLTVL
As for B16, the binding result is reported as “recognises”.

B17: nwTCR-1953 (TCR, V domains shown)
Valpha: DAKTTQPNSMESNEEEPVHLPCNHSTISGTDYIHWYRQLPSQGPEYVIHGLTSNVNNRMASLAIAEDRKSSTLILHRATLRDAAVYYCILRAGGSGDKLTFGTGTRLAVRP
Vbeta: DTEVTQTPKHLVMGMTNKKSLKCEQHMGHRAMYWYKQKAKKPPELMFVYSYEKLSINESVPSRFSPECPNSSLLNLHLHALQPEDSALYLCASSQDPFWGAGELFFGEGSRLTVL
As to B17, the binding result is listed as “recognises”.

B18: nwTCR-2170 (TCR, V domains shown)
Valpha: GQQLNQSPQSMFIQEGEDVSMNCTSSSIFNTWLWYKQDPGEGPVLLIALYKAGELTSNGRLTAQFGITRKDSFLNISASIPSDVGIYFCAGQASGTYKYIFGTGTRLKVLA
Vbeta: EAQVTQNPRYLITVTGKKLTVTCSQNMNHEYMSWYRQDPGLGLRQIYYSMNVEVTDKGDVPEGYKVSRKEKRNFPLILESPSPNQTSLYFCASSSGTSDEQYFGPGTRLTVT
Take B18: the binding result is reported as “recognises”.

B19: nwTCR-2285 (TCR, V domains shown)
Valpha: KNEVEQSPQNLTAQEGEFITINCSYSVGISALHWLQQHPGGGIVSLFMLSSGKKKHGRLIATINIQEKHSSLHITASHPRDSAVYICALNSDSNYQLIWGAGTKLIIKP
Vbeta: EAQVTQNPRYLITVTGKKLTVTCSQNMNHEYMSWYRQDPGLGLRQIYYSMNVEVTDKGDVPEGYKVSRKEKRNFPLILESPSPNQTSLYFCATSPGTLYEQYFGPGTRLTVT
As to B19, the binding result is given as “recognises”.

B20: nwTCR-2719 (TCR, V domains shown)
Valpha: GIQVEQSPPDLILQEGANSTLRCNFSDSVNNLQWFHQNPWGQLINLFYIPSGTKQNGRLSATTVATERYSLLYISSSQTTDSGVYFCAVLAPGTYKYIFGTGTRLKVLA
Vbeta: EAQVTQNPRYLITVTGKKLTVTCSQNMNHEYMSWYRQDPGLGLRQIYYSMNVEVTDKGDVPEGYKVSRKEKRNFPLILESPSPNQTSLYFCASSWGSGYEQYFGPGTRLTVT
As for B20, the binding result is reported as “recognises”.

B21: nwTCR-2006 (TCR, V domains shown)
Valpha: AQSVTQLDSHVSVSEGTPVLLRCNYSSSYSPSLFWYVQHPNKGLQLLLKYTSAATLVKGINGFEAEFKKSETSFHLTKPSAHMSDAAEYFCVVSITGFQKLVFGTGTRLLVSP
Vbeta: GAVVSQHPSRVICKSGTSVKIECRSLDFQATTMFWYRQFPKQSLMLMATSNEGSKATYEQGVEKDKFLINHASLTLSTLTVTSAHPEDSSFYICSATEDNEKLFFGSGTQLSVL
Regarding B21, the binding result was “recognises”.

Values taken from patent US20260256915A1 (published 2026).
